The target of this test is T1, BODIPY-labeled LDL (low density lipoprotein) (UniProt P04114 28-4563, BODIPY fluorescent label, site not stated).
T1 construct: A lipoprotein particle (protein and lipid), not a pure protein; also called BODIPY-LDL; LDL-BODIPY
The test can be described thus: FACS; increasing amounts of BODIPY-LDL for 1 h at 37 C on HEK293 cells transfected with LDLR mRNA.

Results on one molecule are retold here after patent US20160136236A1 (MODERNA THERAPEUTICS, published 2016).

B1: wild type (WT) human low density lipoprotein receptor (LDLR) (receptor)
chain: not shown
notes: also called LDL receptor; wild-type LDLR
As usually defined, the Kd is the concentration at which binding is half-saturated. High values mean a looser complex, low ones a tighter complex. In turn, B1 gave a dissociation constant Kd of approximately 0.06 µg/mL.
